Positions count from the first letter of the chain named.

Test [1] addresses human EPHA2 expressed on cells (human, UniProt P29317 24-976). The test can be described thus: cell-based or functional assay.
Another test addresses T1, bovine serum albumin (bovine, UniProt P02769 25-607).
T1 construct: Control protein in the ELISA; also called BSA
The test can be described thus: ELISA on plate-coated BSA. The method, then: A solution of an EPHA2 extracellular region polypeptide (manufactured by R&D Systems, Inc., #3035-A2-100) or bovine serum albumin (in the description below and the figures, abbreviated to “BSA”) as a control diluted to 1 μg/ml with PBS was dispensed at 100 μl/well onto an immunoplate (manufactured by Nunc, #442404) and incubated overnight at 4° C. to thereby adsorb the protein to the plate.
The plate was incubated at room temperature for 1 hour. Then, the solution in the wells was removed, and the wells were washed twice with Diluting Buffer. Goat anti-Mouse IgG, Peroxidase Conjugated (manufactured by Millipore (Chemicon), #AP181P) diluted 1000 times with Diluting Buffer was added at 100 μl/well and incubated at room temperature for 1 hour. The solution in the wells was removed, and the wells were washed twice with Diluting Buffer. Then, a color reaction was performed with stirring by the addition of OPD Color Developing Solution at 100 μl/well. After color development, the color reaction was terminated by the addition of 1 M HCl at 100 μl/well. The absorbance at 490 nm was measured using a plate reader (FIG. 7).
A general note: ELISA stands for enzyme-linked immunosorbent assay.

Sequence of human EPHA2 expressed on cells (P29317 24-976 limits assumed): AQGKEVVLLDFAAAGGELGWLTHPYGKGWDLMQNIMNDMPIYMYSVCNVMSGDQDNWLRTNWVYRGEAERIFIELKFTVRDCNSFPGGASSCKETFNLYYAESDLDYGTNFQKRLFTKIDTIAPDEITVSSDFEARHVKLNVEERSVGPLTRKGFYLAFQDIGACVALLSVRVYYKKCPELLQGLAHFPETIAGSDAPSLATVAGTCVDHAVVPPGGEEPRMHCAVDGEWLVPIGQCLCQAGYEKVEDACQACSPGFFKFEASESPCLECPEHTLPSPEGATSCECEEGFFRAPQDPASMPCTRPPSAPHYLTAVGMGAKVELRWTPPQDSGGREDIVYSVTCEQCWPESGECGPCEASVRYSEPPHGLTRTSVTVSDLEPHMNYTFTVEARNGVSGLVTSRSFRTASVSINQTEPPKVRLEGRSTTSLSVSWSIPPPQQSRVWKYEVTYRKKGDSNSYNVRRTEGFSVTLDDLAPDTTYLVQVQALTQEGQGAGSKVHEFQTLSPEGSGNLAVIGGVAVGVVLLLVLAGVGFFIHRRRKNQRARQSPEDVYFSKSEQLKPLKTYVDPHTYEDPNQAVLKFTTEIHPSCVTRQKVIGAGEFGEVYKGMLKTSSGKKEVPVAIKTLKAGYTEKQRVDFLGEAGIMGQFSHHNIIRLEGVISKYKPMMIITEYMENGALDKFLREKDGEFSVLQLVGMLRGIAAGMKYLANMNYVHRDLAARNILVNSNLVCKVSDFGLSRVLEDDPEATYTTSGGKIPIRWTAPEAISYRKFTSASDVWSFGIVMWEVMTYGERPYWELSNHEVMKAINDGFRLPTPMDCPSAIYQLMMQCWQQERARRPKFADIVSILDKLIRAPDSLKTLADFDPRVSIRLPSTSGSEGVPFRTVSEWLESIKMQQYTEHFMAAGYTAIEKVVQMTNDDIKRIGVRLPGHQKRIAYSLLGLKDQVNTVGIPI
T1 sequence (P02769 25-607 limits assumed): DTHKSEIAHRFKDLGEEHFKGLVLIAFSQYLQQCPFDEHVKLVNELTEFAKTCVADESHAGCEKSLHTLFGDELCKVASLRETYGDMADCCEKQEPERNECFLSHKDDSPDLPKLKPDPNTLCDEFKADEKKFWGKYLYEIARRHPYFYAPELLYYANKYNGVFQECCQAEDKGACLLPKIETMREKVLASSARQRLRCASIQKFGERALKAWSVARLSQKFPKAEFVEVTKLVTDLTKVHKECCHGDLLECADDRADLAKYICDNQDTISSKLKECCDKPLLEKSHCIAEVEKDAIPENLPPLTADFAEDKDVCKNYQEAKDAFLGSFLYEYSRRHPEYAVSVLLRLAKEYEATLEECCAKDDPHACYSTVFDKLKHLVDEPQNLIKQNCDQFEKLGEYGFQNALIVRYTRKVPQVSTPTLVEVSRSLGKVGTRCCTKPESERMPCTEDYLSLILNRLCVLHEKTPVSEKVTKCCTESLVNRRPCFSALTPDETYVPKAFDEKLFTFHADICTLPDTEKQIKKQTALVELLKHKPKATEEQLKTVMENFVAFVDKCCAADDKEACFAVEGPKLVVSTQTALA

B1: SH348-1 (antibody produced by hybridoma SH348-1, FERM BP-10836) (antibody, mouse IgG2a, kappa, V domains shown)
VH: QIQLVQSGPELKKPGETVKISCKASGYTFTHYSMHWVKQAPGKGLKWMGWINTYTGEPTYADDFKGRFAFSLETSASTAFLQINNLKNEDTATYFCATYYRYERDFDYWGQGTTLTVSS
VL: DVLMTQSPLSLPVSLGDQASISCRSSQSIVHSNGNTYLEWYLQKPGQSPKLLIYKVSNRFSGVPDRFSGSGSGTDFTLRISRVEAEDLGVYYCFQGSHVPYTFGGGTKLEIKR
modifications: N-terminal pyroglutamic acid
notes: Mouse monoclonal IgG2a, kappa; The ends of the cDNAs are primer-derived; also called bSH348-1 (biotinylated form)
With B1, in test [1], the “EPHA2 protein level after 24 hours, EPHA2/β-actin band intensity relative to mIgG2a (100%), with cross-linking antibody” value stood at 69% and the “EPHA2 protein level after 24 hours, EPHA2/β-actin band intensity relative to mIgG2a (100%), without cross-linking antibody” value stood at 70%. Further, in the test with bovine serum albumin, the binding result is recorded as “no binding (tested: up to 125 µg/ml)”.

B2: SH357-1 (antibody produced by hybridoma SH357-1, FERM BP-10837) (antibody, mouse IgG2a, kappa, V domains shown)
VH: B1 VH with T30I, H31D, A61S, F80Y, N84S, T93S
VL: B1 VL with S7T, N33S, N35I, R79K
notes: Mouse monoclonal IgG2a, kappa; also called bSH357-1 (biotinylated form)
For B2, the binding result with bovine serum albumin is on record as “no binding (tested: up to 125 µg/ml)”.

The values are drawn from patent publication US20140212439A1 (Daiichi Sankyo, published 2014).
